According to patent US20260258152:

Target: activated Factor VIII (FVIIIa) (UniProt P00451)
UniProt P00451, sequence (P00451 other isoform, or with tags, fused parts or gaps): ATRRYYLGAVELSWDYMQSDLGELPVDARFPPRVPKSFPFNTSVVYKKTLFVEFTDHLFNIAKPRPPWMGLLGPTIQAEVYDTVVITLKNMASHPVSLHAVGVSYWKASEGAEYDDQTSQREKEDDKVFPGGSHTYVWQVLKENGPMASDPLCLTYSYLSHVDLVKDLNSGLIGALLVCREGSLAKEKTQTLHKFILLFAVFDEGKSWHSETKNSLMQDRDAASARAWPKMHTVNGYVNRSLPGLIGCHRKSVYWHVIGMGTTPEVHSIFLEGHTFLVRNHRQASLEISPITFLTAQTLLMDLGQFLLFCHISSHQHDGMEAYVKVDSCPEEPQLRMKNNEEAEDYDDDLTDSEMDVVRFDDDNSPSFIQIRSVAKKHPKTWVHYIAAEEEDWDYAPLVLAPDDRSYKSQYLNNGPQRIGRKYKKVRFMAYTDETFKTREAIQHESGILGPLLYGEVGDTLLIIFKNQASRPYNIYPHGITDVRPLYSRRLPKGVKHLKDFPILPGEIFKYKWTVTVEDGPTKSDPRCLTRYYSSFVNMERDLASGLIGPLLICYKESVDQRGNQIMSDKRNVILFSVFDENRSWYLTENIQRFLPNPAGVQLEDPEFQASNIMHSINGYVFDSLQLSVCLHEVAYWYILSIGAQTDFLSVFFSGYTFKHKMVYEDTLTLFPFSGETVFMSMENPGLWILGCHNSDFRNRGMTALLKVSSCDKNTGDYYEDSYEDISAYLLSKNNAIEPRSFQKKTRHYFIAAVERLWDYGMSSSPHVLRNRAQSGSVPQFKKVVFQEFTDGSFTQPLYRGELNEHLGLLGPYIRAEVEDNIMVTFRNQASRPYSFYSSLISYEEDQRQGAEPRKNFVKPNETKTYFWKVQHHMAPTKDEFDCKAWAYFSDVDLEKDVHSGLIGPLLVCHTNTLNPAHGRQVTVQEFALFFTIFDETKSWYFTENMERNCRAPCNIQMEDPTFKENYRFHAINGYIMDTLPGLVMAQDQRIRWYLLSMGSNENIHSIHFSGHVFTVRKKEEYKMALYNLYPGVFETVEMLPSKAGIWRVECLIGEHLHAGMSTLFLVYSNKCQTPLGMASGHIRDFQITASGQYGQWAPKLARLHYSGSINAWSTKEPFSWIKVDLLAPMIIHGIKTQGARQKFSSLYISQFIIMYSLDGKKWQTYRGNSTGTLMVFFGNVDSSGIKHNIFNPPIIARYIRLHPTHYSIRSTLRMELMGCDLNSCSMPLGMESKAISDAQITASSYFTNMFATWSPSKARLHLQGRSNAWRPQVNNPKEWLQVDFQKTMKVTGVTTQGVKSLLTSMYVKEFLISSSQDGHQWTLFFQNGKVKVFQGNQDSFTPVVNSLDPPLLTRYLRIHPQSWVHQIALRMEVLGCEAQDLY

## Factor IX G93S (hemophilia B-causing FIX variant)
  FIX activity without the FVIIIa-mimetic: only 0.1% and 2% activity without the FVIIIa-mimetic
  FIX activity, one-stage aPTT clotting assay with and without 300 nM emicizumab: I397T, E387K, R338P, and G93S all substantially increase their activity with the addition of emicizumab
